In patent US20190077860A1 (EISAI R AND D MANAGEMENT, published 2019):
Positions count from the first letter of the chain named.

T1: human EphB6 extracellular region-SEAP-His protein (human, UniProt O15197 32-594)
T1 construct: extracellular domain; also called hEphB6-SEAP-His
T1 sequence (looked up): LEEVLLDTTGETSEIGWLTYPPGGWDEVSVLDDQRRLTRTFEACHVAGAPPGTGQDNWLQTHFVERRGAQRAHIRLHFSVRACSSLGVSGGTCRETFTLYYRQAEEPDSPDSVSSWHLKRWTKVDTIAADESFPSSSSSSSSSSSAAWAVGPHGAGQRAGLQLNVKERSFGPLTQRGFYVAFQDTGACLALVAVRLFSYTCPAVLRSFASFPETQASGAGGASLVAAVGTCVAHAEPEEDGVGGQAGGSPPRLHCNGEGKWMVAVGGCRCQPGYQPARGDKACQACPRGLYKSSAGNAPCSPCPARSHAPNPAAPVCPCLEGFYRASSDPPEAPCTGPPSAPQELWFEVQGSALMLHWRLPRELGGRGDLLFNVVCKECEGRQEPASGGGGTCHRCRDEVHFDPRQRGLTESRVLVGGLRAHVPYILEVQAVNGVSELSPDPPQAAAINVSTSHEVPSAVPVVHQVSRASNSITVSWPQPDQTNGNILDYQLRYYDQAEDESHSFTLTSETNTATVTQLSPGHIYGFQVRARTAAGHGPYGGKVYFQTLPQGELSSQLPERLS

T2: human EphA10 extracellular region-SEAP-His protein (human, UniProt Q5JZY3 34-565)
T2 construct: extracellular domain; also called hEphA10-SEAP-His
T2 sequence (looked up): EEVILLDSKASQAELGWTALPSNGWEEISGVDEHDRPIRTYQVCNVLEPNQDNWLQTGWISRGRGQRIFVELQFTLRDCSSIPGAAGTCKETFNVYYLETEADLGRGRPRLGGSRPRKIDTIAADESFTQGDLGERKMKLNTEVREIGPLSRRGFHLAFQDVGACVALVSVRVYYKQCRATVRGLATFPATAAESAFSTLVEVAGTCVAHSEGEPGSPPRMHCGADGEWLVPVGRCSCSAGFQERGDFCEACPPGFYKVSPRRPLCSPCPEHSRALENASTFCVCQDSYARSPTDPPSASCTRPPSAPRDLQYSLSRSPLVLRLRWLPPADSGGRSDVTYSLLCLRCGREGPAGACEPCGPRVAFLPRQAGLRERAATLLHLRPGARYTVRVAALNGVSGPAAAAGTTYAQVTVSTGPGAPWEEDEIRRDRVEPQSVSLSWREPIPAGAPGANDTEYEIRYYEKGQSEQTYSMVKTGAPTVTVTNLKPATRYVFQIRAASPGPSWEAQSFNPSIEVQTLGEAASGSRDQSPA

B1: humanized antibody No. 82 (antibody, human IgG1, kappa)
heavy: QVQLVQSGSELKKPGASVKVSCKASGYTFTDYSMHWVRQAPGQGLKWMGWINTETGEPTYAQGFTGRFVFSLDTSVSTAYLQISSLKAEDTAVYYCARIPLYYYGSRYWYFDVWGQGTTVTVSSASTKGPSVFPLAPSSKSTSGGTAALGCLVKDYFPEPVTVSWNSGALTSGVHTFPAVLQSSGLYSLSSVVTVPSSSLGTQTYICNVNHKPSNTKVDKRVEPKSCDKTHTCPPCPAPPAAAPSVFLFPPKPKDTLMISRTPEVTCVVVDVSHEDPEVQFNWYVDGVEVHNAKTKPREEQFNSTFRVVSVLTVVHQDWLNGKEYKCKVSNKGLPAPIEKTISKTKGQPREPQVYTLPPSREEMTKNQVSLTCLVKGFYPSDIAVEWESNGQPENNYKTTPPMLDSDGSFFLYSKLTVDKSRWQQGNVFSCSVMHEALHNHYTQKSLSLSPG
light: DIQMTQSPSSLSASVGDRVTITCRASENIYRNLAWYQQKPGKAPKLLLYAATNLADGVPSRFSGSGSGTDYTLTISSLQSEDFATYYCQHFWGTPWTFGQGTKVEIKRTVAAPSVFIFPPSDEQLKSGTASVVCLLNNFYPREAKVQWKVDNALQSGNSQESVTEQDSKDSTYSLSSTLTLSKADYEKHKVYACEVTHQGLSSPVTKSFNRGEC
notes: human Ig kappa; also called L1-5/HA2
B2: humanized antibody No. 140 (antibody, human IgG2)
heavy: QVQLVQSGSELKKPGASVKVSCKASGYTFTDYSMHWVRQAPGQGLKWMGWINTETGEPTYAQGFTGRFVFSLDTSVSTAYLQISSLKAEDTAVYYCARIPLYYYGSRYWYFDVWGQGTTVTVSSASTKGPSVFPLAPSSRSTSESTAALGCLVKDYFPEPVTVSWNSGALTSGVHTFPAVLQSSGLYSLSSVVTVPSSNFGTQTYTCNVDHKPSNTKVDKTVERKSCVECPPCPAPPAAAPSVFLFPPKPKDTLMISRTPEVTCVVVDVSHEDPEVQFNWYVDGVEVHNAKTKPREEQFNSTFRVVSVLTVVHQDWLNGKEYKCKVSNKGLPAPIEKTISKTKGQPREPQVYTLPPSREEMTKNQVSLTCLVKGFYPSDIAVEWESNGQPENNYKTTPPMLDSDGSFFLYSKLTVDKSRWQQGNVFSCSVMHEALHNHYTQKSLSLSPG
light: B1 light with L48V, S80P
notes: human Ig kappa; also called L1-4/HA2
B3: humanized antibody No. 143 (antibody, human IgG2)
heavy: B2 heavy with V2I, Q62D, G63D, T65K
light: B1 light with L48V, S80P
notes: human Ig kappa; also called L1-4/HK4
B4: humanized antibody No. 91 (antibody, human IgG1, kappa)
heavy: B1 heavy with Q62D, G63D, T65K
light: B1 light with K45Q, S80P
notes: human Ig kappa; also called L1-6/HK2
B5: humanized antibody No. 142 (antibody, human IgG2)
heavy: B2 heavy with Q62D, G63D, T65K
light: B1 light with L48V, S80P
notes: human Ig kappa; also called L1-4/HK2
B6: humanized antibody No. 92 (antibody, human IgG1, kappa)
heavy: B1 heavy with V2I, Q62D, G63D, T65K
light: B1 light with K45Q, S80P
notes: human Ig kappa; also called L1-6/HK4
B7: humanized antibody No. 144 (antibody, human IgG2)
heavy: B2 heavy with K46E, Q62D, G63D, T65K
light: B1 light with K45Q, S80P
notes: human Ig kappa; also called L1-6/HK1
B8: humanized antibody No. 145 (antibody, human IgG2)
heavy: B2 heavy with Q62D, G63D, T65K
light: B1 light
notes: human Ig kappa; also called L1-5/HK2
B9: humanized antibody No. 141 (antibody, human IgG2)
heavy: B2 heavy with K46E, Q62D, G63D, T65K
light: B1 light with L48V, S80P
notes: human Ig kappa; also called L1-4/HK1
B10: humanized antibody No. 90 (antibody, human IgG1, kappa)
heavy: B1 heavy with K46E, Q62D, G63D, T65K
light: B1 light with K45Q, S80P
notes: as for B7
B11: humanized antibody No. 89 (antibody, human IgG1, kappa)
heavy: B1 heavy with V2I
light: B1 light with K45Q, S80P
notes: human Ig kappa; also called L1-6/HA4
B12: humanized antibody No. 83 (antibody, human IgG1, kappa)
heavy: B1 heavy with V2I
light: B1 light
notes: human Ig kappa; also called L1-5/HA4
B13: humanized antibody No. 139 (antibody, human IgG2)
heavy: B2 heavy with K46E
light: B1 light with L48V, S80P
notes: human Ig kappa; also called L1-4/HA1
B14: humanized antibody No. 86 (antibody, human IgG1, kappa)
heavy: B1 heavy with V2I, Q62D, G63D, T65K
light: B1 light
notes: human Ig kappa; also called L1-5/HK4
B15: humanized antibody No. 85 (antibody, human IgG1, kappa)
heavy: B1 heavy with Q62D, G63D, T65K
light: B1 light
notes: as for B8
B16: humanized antibody No. 88 (antibody, human IgG1, kappa)
heavy: B1 heavy
light: B1 light with K45Q, S80P
notes: human Ig kappa; also called L1-6/HA2
B17: humanized antibody No. 151 (antibody, human IgG2)
heavy: B2 heavy with V2I
light: B1 light
notes: as for B12
B18: humanized antibody No. 84 (antibody, human IgG1, kappa)
heavy: B1 heavy with K46E, Q62D, G63D, T65K
light: B1 light
notes: human Ig kappa; also called L1-5/HK1
B19: humanized antibody No. 138 (antibody, human IgG2)
heavy: B2 heavy with V2I
light: B1 light with L48V, S80P
notes: human Ig kappa; also called L1-4/HA4
B20: humanized antibody No. 152 (antibody, human IgG2)
heavy: B2 heavy with K46E
light: B1 light
notes: human Ig kappa; also called L1-5/HA1
B21: humanized antibody No. 87 (antibody, human IgG1, kappa)
heavy: B1 heavy with K46E
light: B1 light with K45Q, S80P
notes: human Ig kappa; also called L1-6/HA1

Molecular target: T1, human EphB6 extracellular …
Experiment: ELISA

Row | Binder | A450 as % of hEphA4-SEAP-His [%]
1 | B1 | 5.5
2 | B2 | 5.2
3 | B3 | 5.6
4 | B4 | 6.3
5 | B5 | 5.6
6 | B6 | 6.5
7 | B7 | 5.9
8 | B8 | 6.6
9 | B9 | 5.4
10 | B10 | 5.2
11 | B11 | 4.8
12 | B12 | 5.8
13 | B13 | 5.9
14 | B14 | 5.7
15 | B15 | 5.2
16 | B16 | 6.1
17 | B17 | 7.1
18 | B18 | 4.9
19 | B19 | 5
20 | B20 | 5.9
21 | B21 | 5.3

Molecular target: T2, human EphA10 extracellular …
Experiment: ELISA

Row | Binder | A450 as % of hEphA4-SEAP-His [%]
22 | B1 | 5.4
23 | B2 | 5.2
24 | B3 | 5.2
25 | B4 | 8.5
26 | B5 | 5.4
27 | B6 | 6.6
28 | B7 | 5.7
29 | B8 | 6.5
30 | B9 | 5.2
31 | B10 | 5.1
32 | B11 | 5.7
33 | B12 | 5.6
34 | B13 | 5.5
35 | B14 | 5.6
36 | B15 | 5
37 | B16 | 5.8
38 | B17 | 6.6
39 | B18 | 5.1
40 | B19 | 5
41 | B20 | 5.8
42 | B21 | 5.2
